In patent publication US20240368668A1, “SUBSTRATES AND BIOMARKERS OF ADAMTS7” (The Broad Institute, Inc., priority 2021, published 2024):

Target: T1, mouse ADAMTS7 (Mus musculus, UniProt Q68SA9)
T1 construct: Full-length mouse Adamts7 1-1857 (Uniprot Q68SA9, WT or E373Q catalytic mutant); expressed in transfected cells; host or cells: Human Coronary Artery Smooth Muscle Cells (HCA-SMC, Lonza), adenovirus 50 MOI
T1 sequence (Q68SA9 221-1657): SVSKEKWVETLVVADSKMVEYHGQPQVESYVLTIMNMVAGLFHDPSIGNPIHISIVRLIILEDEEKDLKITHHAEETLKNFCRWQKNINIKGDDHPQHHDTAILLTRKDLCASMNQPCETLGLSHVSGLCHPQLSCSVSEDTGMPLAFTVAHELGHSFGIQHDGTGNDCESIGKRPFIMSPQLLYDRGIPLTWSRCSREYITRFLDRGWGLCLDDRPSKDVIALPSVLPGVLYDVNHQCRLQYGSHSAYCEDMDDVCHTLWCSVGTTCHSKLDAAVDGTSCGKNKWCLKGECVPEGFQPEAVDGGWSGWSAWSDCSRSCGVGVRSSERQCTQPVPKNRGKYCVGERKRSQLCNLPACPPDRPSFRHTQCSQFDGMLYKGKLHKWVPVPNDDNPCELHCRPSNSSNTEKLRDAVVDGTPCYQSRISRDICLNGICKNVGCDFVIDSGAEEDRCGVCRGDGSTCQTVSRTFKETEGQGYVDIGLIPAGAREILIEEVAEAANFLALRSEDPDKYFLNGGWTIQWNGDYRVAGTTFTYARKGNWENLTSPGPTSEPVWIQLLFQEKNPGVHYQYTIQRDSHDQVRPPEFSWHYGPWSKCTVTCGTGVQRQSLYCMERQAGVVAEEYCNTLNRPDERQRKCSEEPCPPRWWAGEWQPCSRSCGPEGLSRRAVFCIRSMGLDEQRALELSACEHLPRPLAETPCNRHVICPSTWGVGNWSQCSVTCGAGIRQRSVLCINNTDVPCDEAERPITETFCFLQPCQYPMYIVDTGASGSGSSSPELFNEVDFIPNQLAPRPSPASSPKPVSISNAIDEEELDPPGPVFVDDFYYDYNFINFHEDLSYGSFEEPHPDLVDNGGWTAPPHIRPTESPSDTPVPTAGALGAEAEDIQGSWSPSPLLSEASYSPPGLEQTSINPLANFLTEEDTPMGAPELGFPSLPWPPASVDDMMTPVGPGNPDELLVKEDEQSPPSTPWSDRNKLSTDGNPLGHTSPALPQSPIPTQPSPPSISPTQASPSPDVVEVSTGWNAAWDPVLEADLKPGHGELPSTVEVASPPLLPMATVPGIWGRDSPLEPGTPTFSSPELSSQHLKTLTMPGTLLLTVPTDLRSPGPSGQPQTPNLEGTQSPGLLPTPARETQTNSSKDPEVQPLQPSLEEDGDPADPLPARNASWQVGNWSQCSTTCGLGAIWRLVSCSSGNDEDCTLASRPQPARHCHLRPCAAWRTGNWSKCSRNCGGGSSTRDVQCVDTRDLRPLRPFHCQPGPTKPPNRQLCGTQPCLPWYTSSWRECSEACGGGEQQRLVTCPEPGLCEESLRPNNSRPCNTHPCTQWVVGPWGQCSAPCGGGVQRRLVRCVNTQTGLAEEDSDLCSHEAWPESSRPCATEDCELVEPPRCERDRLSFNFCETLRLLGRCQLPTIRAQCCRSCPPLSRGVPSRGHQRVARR
Assay: TMT10 TAILS N-terminomics, HUVEC experiment (process replicates, trypsin/AspN digest)
Format: cell-based, human
Details: HUVEC TAILS HC; log fold change of N-terminal peptide, Ad-mADAMTS7 WT over Luc
Source text: ADAMTS7 Expression, Cell Culture and Preparation of the Secreted Proteins—Full-length mouse Adamts7 1-1857 (Uniprot Q68SA9, WT or E373Q catalytic mutant) with a carboxyl terminal 3xFLAG tag was used to generate custom adenoviruses as previously described. Adeno-CMV-Luciferase (Ad-Luc) from Vector Biolabs was used as a negative control. Human Coronary Artery Smooth Muscle Cells (HCA-SMC) were obtained from Lonza and expanded in Lonza SmGM-2 media in 15 cm tissue culture plates. Twenty-four hours before media collection, near confluent plates were transduced with 50 MOI adenovirus and switched to Lonza Basal SM media with volumes of 20 ml per 15 cm plate. Expression of the Flag tagged ADAMTS7 was confirmed from the media using western blot and detected using the anti-Flag M2-HRP antibody (Sigma, A8592). Collected media was processed by adding protease inhibitors (1 mM EDTA and 1 mM PMSF) and clarified by 500 g×5 min spin at 4 C to pellet cell debris. Cell media supernatants were then passed through a 0.22 um filter and kept chilled. Processed media was then concentrated 50-100× using 3 kDa Centricon Plus-70 filter unit, spun at 3,500 g×60 min at 4 C. Approximately 10% of the processed, concentrated media was set aside for total secretome proteolytic analysis. The remaining 90% of the processed, concentrated media was buffer exchanged into 50 mM HEPES pH 8.0, 150 mM NaCl (2×50 ml) using the 3 kDa Centricon Plus-70 filter unit and concentrated to >2 mg/ml to serve as input for the TAILS experiment. Secretome and TAILS input samples were stored at −80° C.
For the first experiment, referred to as SMC1, 120 ml of media from 6×15 cm dishes was pooled from each condition (Luc, WT, EQ) and processed to produce three separate inputs for the TAILS experiment. Luc, WT and EQ inputs from the SMC1 experiment were each divided into triplicate 400 ug samples to generate technical replicate TAILS data. For the second experiment, referred to as SMC2, media was processed separately in triplicate for each condition (Luc1, Luc2, Luc3, WT1, WT2, WT3, EQ1, EQ2, EQ3) using 60 ml of media from 3×15 cm dishes for each process replicate. Inputs from the SMC2 experiment used process replicates of 300 ug each to generate TAILS data. The third experiment used input from cultured Human umbilical vein endothelial cells (HUVEC) from Lifeline Cell Technology grown in VascuLife Media and transduced in Lifeline Basal EC (+bFGF2 10 ng/ml). The HUVEC experiment used the same strategy as the SMC2 experiment, with 40 ml of media from 2×15 cm dishes for each process replicate and used 200 ug each to generate TAILS data. Inputs for process replicate experiments were restricted to the lowest concentration from the 9 parallel samples for SMC2 or HUVEC.
TMT10 isotopic labeling and negative selection of non-labeled peptides-Sample preparation was performed based on the TAILS protocol from the Overall lab with some modifications. From a single experiment, nine parallel protein samples in 50 mM HEPES pH 8.0, 150 mM NaCl were separately denatured with guanidinium chloride (Sigma, G4505) to reach a final concentration of 2.5M guanidinium chloride and 250 mM HEPES and incubated at 65° C. for 15 min. Reduction was achieved through addition of tris(2-carboxylethyl) phosphine (TCEP) at a final concentration of […] and incubated at 65° C. for 45 min. Alkylation reaction was performed with addition of iodoacetamide (IAA, Sigma, A3221) to a final concentration of 10 mM IAA for 15 min at room temperature in the dark. Following denaturation, reduction and alkylation steps, ten percent of each of the nine parallel protein samples was removed and combined to serve as a pooled reference. Isobaric tags were added to free amine groups using the TMT10plex Isobaric Mass Tagging Kit (ThermoFisher, 90113) with TMT channels randomly assigned to the nine samples and TMT 131 assigned to the pooled reference. […]

## AEBP1_37 (FLEGFLSELEPEPR; listed as Homo sapiens)
  logFC.mWT.over.Luc: 3.77

## EFEMP1_124 (AVAGPEMQTGR; listed as Homo sapiens)
  logFC.mWT.over.Luc: 2.92

## FBN1_29 (LEAGNVKETR; listed as Homo sapiens)
  logFC.mWT.over.Luc: 3.57

## FLNA_1285 (LTQTGGPHVKAR; listed as Homo sapiens)
  logFC.mWT.over.Luc: 3.29

## FN1_36 (MVQPQSPVAVSQSKPGCYDNGKHYQINQQWER; listed as Homo sapiens)
  logFC.mWT.over.Luc: 2.98

## FN1_40 (QSPVAVSQSKPGCYDNGKHYQINQQWER; listed as Homo sapiens)
  logFC.mWT.over.Luc: 2.45

## FN1_886 (NQESTPVVIQQETTGTPR; listed as Homo sapiens)
  logFC.mWT.over.Luc: 1.61

## FN1_1143 (LTPGVEYVYTIQVLR; listed as Homo sapiens)
  logFC.mWT.over.Luc: 3.43

## FN1_1656 (SSSPVTGYR; listed as Homo sapiens)
  logFC.mWT.over.Luc: 1.56

## HSPG2_2331 (ANLAYPAGSTQPIR; listed as Homo sapiens)
  logFC.mWT.over.Luc: 1.72

## IGFBP7_101 (AAGGPGVSGVCVCKSR; listed as Homo sapiens)
  logFC.mWT.over.Luc: 1.86

## LOXL2_37 (FQQPAPEYHQPQAPANVAKIQLR; listed as Homo sapiens)
  logFC.mWT.over.Luc: 2.82

## LOX_124 (WFQAGYSTSR; listed as Homo sapiens)
  logFC.mWT.over.Luc: 3.38

## LTBP1_393 (LTATNFR; listed as Homo sapiens)
  logFC.mWT.over.Luc: 3.14
